The results in this text go back to US20220227830A1, “QD DOSING OF GIP RECEPTOR AGONIST PEPTIDE COMPOUNDS AND USES THEREOF” (Takeda Pharmaceutical Company Limited, priority 2020, published 2022).

In assay [1] the target is full-length human GLP-1R with an N-terminal FLAG tag (human, UniProt P43220 24-463). Kind of assay: cell-based or functional assay.
The target of assay [2] is T1, full-length human GIPR with an N-terminal FLAG tag (human, UniProt P48546 22-466).
T1 sequence (looked up): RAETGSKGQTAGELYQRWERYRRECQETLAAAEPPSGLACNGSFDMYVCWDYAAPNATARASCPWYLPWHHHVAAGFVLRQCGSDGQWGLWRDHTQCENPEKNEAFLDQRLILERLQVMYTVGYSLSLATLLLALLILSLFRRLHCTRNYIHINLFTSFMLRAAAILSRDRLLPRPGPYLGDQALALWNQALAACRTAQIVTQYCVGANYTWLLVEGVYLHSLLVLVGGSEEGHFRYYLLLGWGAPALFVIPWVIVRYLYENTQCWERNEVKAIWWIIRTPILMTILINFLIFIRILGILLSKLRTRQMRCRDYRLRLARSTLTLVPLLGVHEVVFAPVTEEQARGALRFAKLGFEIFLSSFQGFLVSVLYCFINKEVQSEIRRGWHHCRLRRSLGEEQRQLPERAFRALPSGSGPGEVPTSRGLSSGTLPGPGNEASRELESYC
Briefly: cell-based or functional assay.

Starred links: 1 amine or outer side, 2 acyl side, 3 side chain; linkers in the order of their positions; H or OH if unused. Non-standard residues stand in square brackets, D forms with d. Groups on a side chain read outwards from the residue. No end group written: not given here. *: point of attachment. 2OEGgE = O=C(CC[C@H](N[*:1])C(=O)O)NCCOCCOCC(=O)NCCOCCOCC(=O)[*:2]; G2E3 = linker of 2 Gly and 3 Glu (read GGEEE); C16 diacid = O=C(O)CCCCCCCCCCCCCCC(=O)*; C15 diacid = O=C(O)CCCCCCCCCCCCCC(=O)*; γGlu = O=C(O)[C@H](CCC(=O)[*:2])N[*:1]; NMeY = CN[C@@H](Cc1ccc(O)cc1)C(=O)O; AEEA = NCCOCCOCC(=O)O; Aib = CC(C)(N)C(=O)O

For [NMeY][Aib]EGTFISDYSIALDRKHQ[Aib]NFVNWLLAQSPSSGAPPPS-NH2 (not fully specified (residue 17)) [Compound 64], in assay [1], the “Human GLP1R cAMP HEK293T EC50” value turned out to be 1000 nM. The “Human GIPR cAMP, HEK293T EC50” value in assay [2] came out at 0.0005 nM.

Turning to [NMeY][Aib]EGTFISDYSIALDR[Aib]K([G2E3-C15 diacid])Q[Aib]NFVNWLLAQSPSSGAPPPS-OH (not fully specified) [Compound 55], the “Human GLP1R cAMP HEK293T EC50” value in assay [1] turned out to be 240 nM. In addition, the “Human GIPR cAMP, HEK293T EC50” value in assay [2] came to 0.0002 nM.

As to YXEGTFISDYSIALDRXHQXDFVNWLLAQRPSSGAPPPS (not fully specified; Me-Tyr1; Aib 2,20; Km17 = Lys(gEgE-C15DA); C-term NH2) [Compound 66], in assay [1], the “Human GLP1R cAMP HEK293T EC50” value came to 1000 nM. Also, the “Human GIPR cAMP, HEK293T EC50” value in assay [2] stood at 0.0004 nM.

As to YXEGTFISDYSIALDRXHQXDFVNWLLAQSPSSGAPPPS (not fully specified; Me-Tyr1; Aib 2,20; Km17 = Lys(gE-C15DA); C-term NH2) [Compound 69], the “Human GLP1R cAMP HEK293T EC50” value in assay [1] stood at 1000 nM. Further, the “Human GIPR cAMP, HEK293T EC50” value in assay [2] came out at 0.0004 nM.

B1: Compound 68 (peptide)
peptide: YXEGTFISDYSIALDRXHQXDFVNWLLAQSPSSGAPPPS
modifications: not fully specified; Me-Tyr1; Aib 2,20; Km17 = Lys(linker printed 'GS'-C15DA); C-term NH2
Regarding B1, the “Human GLP1R cAMP HEK293T EC50” value in assay [1] was 200 nM. For the same molecule, in assay [2], the “Human GIPR cAMP, HEK293T EC50” value is 0.0007 nM.

On to YXEGTFISDYSIALDRXHQXDFVNWLLAQRPSSGAPPPS (not fully specified; Me-Tyr1; Aib 2,20; Km17 = Lys(gE-C15DA); C-term NH2) [Compound 67], for which the “Human GLP1R cAMP HEK293T EC50” value in assay [1] came to 525 nM. The “Human GIPR cAMP, HEK293T EC50” value in assay [2] turned out to be 0.0006 nM.

As for [NMeY][Aib]EGTFISDYSIALDR[Aib]AQ[Aib]NFVNWLLAQK([OEGgEgE-C15 diacid])PSSGAPPPS-NH2 [Compound 70], the “Human GLP1R cAMP HEK293T EC50” value in assay [1] is 91.2 nM. In addition, the “Human GIPR cAMP, HEK293T EC50” value in assay [2] is 0.0009 nM.

Take [NMeY][Aib]EGTFISDYSIALDRIHQK([AEEA-AEEA-γGlu-C15 diacid])NFVNWLLAQK (also: Me-Tyr methyl position not given here) [Compound 5]: the “Human GLP1R cAMP HEK293T EC50” value in assay [1] is 955 nM. Moreover, the “Human GIPR cAMP, HEK293T EC50” value in assay [2] was found to be 0.0008 nM.

With [NMeY][Aib]EGTFISDYSIALDR[Aib]K([G5gE-C15 diacid])Q[Aib]NFVNWLLAQSPSSGAPPPS-NH2 [Compound 71], the “Human GLP1R cAMP HEK293T EC50” value in assay [1] worked out at 955 nM. The “Human GIPR cAMP, HEK293T EC50” value in assay [2] came to 0.0006 nM.

As for [NMeY][Aib]EGTFISDYSIALDRKHQ[Aib]NFVNWLLAQRPSSGAPPPS-NH2 (not fully specified (residue 17)) [Compound 63], in assay [1], the “Human GLP1R cAMP HEK293T EC50” value was determined as 141 nM. In addition, in assay [2], the “Human GIPR cAMP, HEK293T EC50” value came out at 0.0002 nM.

Consider [NMeY][Aib]EGTFISDYSIALDRKHQ[Aib]NFVNWLLAQSPSSGAPPPS-NH2 (not fully specified (residue 17)) [Compound 65], for which the “Human GLP1R cAMP HEK293T EC50” value in assay [1] was 129 nM. The “Human GIPR cAMP, HEK293T EC50” value in assay [2] was found to be 0.0003 nM.

Regarding [NMeY][Aib]EGTFISDYSIALDR[Aib]K([G5gE-C15 diacid])Q[Aib]DFVNWLLAQRPSSGAPPPS-NH2 [Compound 73], the “Human GLP1R cAMP HEK293T EC50” value in assay [1] turned out to be 1000 nM. Further, the “Human GIPR cAMP, HEK293T EC50” value in assay [2] was 0.0005 nM.

With [NMeY][Aib]EGTFISDYSIALDR[Aib]AQ[Aib]NFVNWLLAQKPSSGAPPPS-OH (not fully specified (residue 30)) [Compound 52], in assay [1], the “Human GLP1R cAMP HEK293T EC50” value amounted to 240 nM. Moreover, the “Human GIPR cAMP, HEK293T EC50” value in assay [2] turned out to be 0.0003 nM.

B2: Compound 76 (peptide)
peptide: [NMeY][Aib]EGTFISDYSIALDR[Aib]K([AEEA-AEEA-γGlu-C15 diacid])Q[Aib]DFVNWLLAQSPSSGAPPPS-NH2
modifications: N-terminus assumed
SMILES: CC[C@H](C)[C@H](NC(=O)[C@H](CO)NC(=O)[C@H](Cc1ccc(O)cc1)NC(=O)[C@H](CC(=O)O)NC(=O)[C@H](CO)NC(=O)[C@@H](NC(=O)[C@H](Cc1ccccc1)NC(=O)[C@@H](NC(=O)CNC(=O)[C@H](CCC(=O)O)NC(=O)C(C)(C)NC(=O)[C@H](Cc1ccc(O)cc1)NC)[C@@H](C)O)[C@@H](C)CC)C(=O)N[C@@H](C)C(=O)N[C@@H](CC(C)C)C(=O)N[C@@H](CC(=O)O)C(=O)N[C@@H](CCCNC(=N)N)C(=O)NC(C)(C)C(=O)N[C@@H](CCCCNC(=O)COCCOCCNC(=O)COCCOCCNC(=O)CC[C@H](NC(=O)CCCCCCCCCCCCCC(=O)O)C(=O)O)C(=O)N[C@@H](CCC(N)=O)C(=O)NC(C)(C)C(=O)N[C@@H](CC(=O)O)C(=O)N[C@@H](Cc1ccccc1)C(=O)N[C@H](C(=O)N[C@@H](CC(N)=O)C(=O)N[C@@H](Cc1c[nH]c2ccccc12)C(=O)N[C@@H](CC(C)C)C(=O)N[C@@H](CC(C)C)C(=O)N[C@@H](C)C(=O)N[C@@H](CCC(N)=O)C(=O)N[C@@H](CO)C(=O)N1CCC[C@H]1C(=O)N[C@@H](CO)C(=O)N[C@@H](CO)C(=O)NCC(=O)N[C@@H](C)C(=O)N1CCC[C@H]1C(=O)N1CCC[C@H]1C(=O)N1CCC[C@H]1C(=O)N[C@@H](CO)C(N)=O)C(C)C
For the molecule B2, in assay [1], the “Human GLP1R cAMP HEK293T EC50” value was 295 nM. Moreover, in assay [2], the “Human GIPR cAMP, HEK293T EC50” value came out at 0.0005 nM.

Consider [NMeY]GEGTFISDYSIAK([2OEGgE-C16 diacid])DRIHQ[Aib]NFVNWLLAQK (not fully specified) [Compound 6], for which the “Human GLP1R cAMP HEK293T EC50” value in assay [1] was found to be 692 nM. Further, the “Human GIPR cAMP, HEK293T EC50” value in assay [2] is 0.0537 nM.

As for [NMeY][Aib]EGTFISDYSIALDRK([G2E3-C15 diacid])AQ[Aib]NFVNWLLAQSPSSGAPPPS-OH (also: Me-Tyr methyl position not given here) [Compound 53], the “Human GLP1R cAMP HEK293T EC50” value in assay [1] was 617 nM. For the same molecule, the “Human GIPR cAMP, HEK293T EC50” value in assay [2] is 0.0001 nM.

B3: Compound 51 (peptide)
peptide: Y[Aib]EGTFISDYSIAKDR[Aib]AQ[Aib]NFVNWLLAQSPSSGAPPPS-OH
modifications: not fully specified (residues 1, 14); also: Me-Tyr methyl position not given here
Consider B3, for which the “Human GLP1R cAMP HEK293T EC50” value in assay [1] came out at 1000 nM. In addition, the “Human GIPR cAMP, HEK293T EC50” value in assay [2] was determined as 0.0003 nM.

In the case of [NMeY][Aib]EGTFISDYSIALDR[Aib]K([G5gE-C15 diacid])Q[Aib]DFVNWLLAQSPSSGAPPPS-NH2 [Compound 74], the “Human GLP1R cAMP HEK293T EC50” value in assay [1] is 550 nM. In addition, the “Human GIPR cAMP, HEK293T EC50” value in assay [2] was 0.0004 nM.

B4: Compound 75 (peptide)
peptide: [NMeY][Aib]EGTFISDYSIALDR[Aib]K([2OEGgE-C15 diacid])Q[Aib]DFVNWLLAQRPSSGAPPPS-NH2
modifications: N-terminus assumed
SMILES: CC[C@H](C)[C@H](NC(=O)[C@H](CO)NC(=O)[C@H](Cc1ccc(O)cc1)NC(=O)[C@H](CC(=O)O)NC(=O)[C@H](CO)NC(=O)[C@@H](NC(=O)[C@H](Cc1ccccc1)NC(=O)[C@@H](NC(=O)CNC(=O)[C@H](CCC(=O)O)NC(=O)C(C)(C)NC(=O)[C@H](Cc1ccc(O)cc1)NC)[C@@H](C)O)[C@@H](C)CC)C(=O)N[C@@H](C)C(=O)N[C@@H](CC(C)C)C(=O)N[C@@H](CC(=O)O)C(=O)N[C@@H](CCCNC(=N)N)C(=O)NC(C)(C)C(=O)N[C@@H](CCCCNC(=O)COCCOCCNC(=O)COCCOCCNC(=O)CC[C@H](NC(=O)CCCCCCCCCCCCCC(=O)O)C(=O)O)C(=O)N[C@@H](CCC(N)=O)C(=O)NC(C)(C)C(=O)N[C@@H](CC(=O)O)C(=O)N[C@@H](Cc1ccccc1)C(=O)N[C@H](C(=O)N[C@@H](CC(N)=O)C(=O)N[C@@H](Cc1c[nH]c2ccccc12)C(=O)N[C@@H](CC(C)C)C(=O)N[C@@H](CC(C)C)C(=O)N[C@@H](C)C(=O)N[C@@H](CCC(N)=O)C(=O)N[C@@H](CCCNC(=N)N)C(=O)N1CCC[C@H]1C(=O)N[C@@H](CO)C(=O)N[C@@H](CO)C(=O)NCC(=O)N[C@@H](C)C(=O)N1CCC[C@H]1C(=O)N1CCC[C@H]1C(=O)N1CCC[C@H]1C(=O)N[C@@H](CO)C(N)=O)C(C)C
For B4, the “Human GLP1R cAMP HEK293T EC50” value in assay [1] is 1000 nM. In addition, the “Human GIPR cAMP, HEK293T EC50” value in assay [2] amounted to 0.0011 nM.

Take [NMeY][Aib]EGTFISDYSIAKDR[Aib]AQQNFVNWLLAQK (not fully specified (residue 14)) [Compound 3]: the “Human GLP1R cAMP HEK293T EC50” value in assay [1] was 692 nM.

In the case of Y[Aib]EGTFISDYSI[Aib]KDR[Aib]AQ[Aib]NFVNWLLAQRPSSGAPPPS-OH (not fully specified (residues 1, 14)) [Compound 56], the “Human GLP1R cAMP HEK293T EC50” value in assay [1] came to 263 nM. In addition, in assay [2], the “Human GIPR cAMP, HEK293T EC50” value was found to be 0.0003 nM.

Regarding [NMeY][Aib]EGTFISDYSIALDRIHQK([AEEA-AEEA-γGlu-C16 diacid])NFVNWLLAQK (not fully specified) [Compound 4], the “Human GLP1R cAMP HEK293T EC50” value in assay [1] turned out to be 692 nM. For the same molecule, in assay [2], the “Human GIPR cAMP, HEK293T EC50” value was found to be 0.0005 nM.
